Here are results for two molecules from article PMC9060916.

One data set addresses T1, alpha fetoprotein (AFP) (human, UniProt P02771 19-609).
T1 sequence: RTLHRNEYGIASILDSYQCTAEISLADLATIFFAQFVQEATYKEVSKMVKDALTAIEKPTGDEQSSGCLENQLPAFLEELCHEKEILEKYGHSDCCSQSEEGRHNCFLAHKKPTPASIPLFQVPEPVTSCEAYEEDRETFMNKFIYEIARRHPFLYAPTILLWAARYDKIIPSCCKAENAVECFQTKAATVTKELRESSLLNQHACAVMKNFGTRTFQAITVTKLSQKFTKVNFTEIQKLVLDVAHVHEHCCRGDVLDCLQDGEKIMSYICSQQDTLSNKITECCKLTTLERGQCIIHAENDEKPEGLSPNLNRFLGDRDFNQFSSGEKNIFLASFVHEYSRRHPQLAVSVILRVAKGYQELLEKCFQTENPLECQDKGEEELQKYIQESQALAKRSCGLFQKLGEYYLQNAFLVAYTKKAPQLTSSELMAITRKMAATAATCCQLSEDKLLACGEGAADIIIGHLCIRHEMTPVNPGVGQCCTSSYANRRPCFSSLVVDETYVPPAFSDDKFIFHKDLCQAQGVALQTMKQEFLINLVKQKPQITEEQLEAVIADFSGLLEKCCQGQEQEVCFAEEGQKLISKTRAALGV
Description: electrochemical sandwich aptasensor.

Another data set addresses T2, C-reactive protein (CRP) (UniProt P02741 19-224).
T2 sequence: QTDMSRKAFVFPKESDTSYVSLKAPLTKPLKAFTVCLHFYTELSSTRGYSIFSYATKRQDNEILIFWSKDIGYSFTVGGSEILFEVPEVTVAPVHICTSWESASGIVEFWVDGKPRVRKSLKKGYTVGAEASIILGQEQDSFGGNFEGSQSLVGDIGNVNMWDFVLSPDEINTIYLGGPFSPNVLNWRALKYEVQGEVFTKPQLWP
In words: electrochemical sandwich aptasensor.

B1: HS-P-ATG (ssDNA)
DNA: ATACCAGCTTATTCAATTATG
modifications: 5' HS-(CH2)6
Turning to B1, the binding result with alpha fetoprotein (AFP) and with C-reactive protein (CRP) was “no binding” each time.

B2: HS-GAC-P (ssDNA)
DNA: GACATACCAGCTTATTCAATT
modifications: 5' HS-(CH2)6
Take B2: the binding result with alpha fetoprotein (AFP) and in the data set with C-reactive protein (CRP) was “no binding” throughout.
